Data: paper PMC4072508, “Genome-Wide Prediction and Validation of Peptides That Bind Human Prosurvival Bcl-2 Proteins” (PLoS Computational Biology, 2014)

T1: Mcl-1, Q07820
T1 chain: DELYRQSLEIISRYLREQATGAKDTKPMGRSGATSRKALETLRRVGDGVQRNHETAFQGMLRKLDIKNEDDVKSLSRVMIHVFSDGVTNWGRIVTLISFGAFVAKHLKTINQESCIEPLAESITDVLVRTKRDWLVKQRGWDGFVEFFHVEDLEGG


Experiments:
[1] = target: Bcl-xL, Q07817; assay: peptide SPOT array, c-Myc-tagged receptor at 1 uM or 100 nM, anti-c-Myc-Cy3
[2] = target: T1, Mcl-1, Q07820; assay: as above

Sequence of Bcl-xL, Q07817 (Q07817 1-209): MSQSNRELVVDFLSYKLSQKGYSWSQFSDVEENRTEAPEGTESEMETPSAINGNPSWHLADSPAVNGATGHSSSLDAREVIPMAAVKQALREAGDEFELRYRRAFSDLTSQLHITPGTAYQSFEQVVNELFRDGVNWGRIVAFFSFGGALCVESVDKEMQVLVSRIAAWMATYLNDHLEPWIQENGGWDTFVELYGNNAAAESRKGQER

| Binder | SPOT signal as a fraction of Bim BH3's signal on the same receptor and array [1] | SPOT signal as a fraction of Bim BH3's signal on the same receptor and array [2] |
| --- | --- | --- |
| TPSRSALSSEDSLVGDTTGDTLEKFV [CREBBP] | 0.01 | 0.01 |
| QRLINLVGESDRLLGNTFVALSDLRC | 0.08 | 0.02 |
| AVLCVECGYKDRFFGEDAEIAARELN [MSH3] | 0.02 | 0.02 |
| VLSRIEAGRSLKSVMDEFGISKSTFY | 0.11 | 0.11 |
| DLSAVTLSRELQAMAEQLAENYHNTW | 0.02 | 0.02 |
| VLSRIEAGRSDKSVMDEFGISKSTFY | 0.02 | 0.02 |
| DLLGMVVVDELHMLLDSHRGYLLELL [POLQ] | 0.02 | 0.02 |
| CILNSFYGYVMRKGLRWYSMEMAGIV | 0.29 | 0.24 |
| QRLINLVGESLRLLGNTFVALSDLRC | 0.05 | 0.03 |
| CALLGSTGERDCLAGDSAGGNLCFTV [LIPE] | 0.01 | 0.01 |
| TLHFNQRGTWLASGSDDLKVVVWDWV [DCAF8] | 0.02 | 0.02 |
| SKFVILSAHKLVFIGDTLTRQVTAQD [NEDD9] | 0.05 | 0.04 |
| KNIAGALAFWDANASELLNFIKQDRD [MLLT4] | 0.02 | 0.02 |
| NKTMTQLSSTLARCAKDILGFAVMFF [PKD2L1] | 0.15 | 0.11 |
| GKPETCTGQDLADLLDRLRDWFQLLH | 0.02 | 0.01 |
| RDPQGWVAGNLSARGDGAAGFTLPGF [MST1R] | 0.02 | 0.02 |
| CDLLGAKGKDILYILDHIFGDILKSK [NT5C2] | 0.06 | 0.06 |
| VLSRIEAGRSLKSVADEFGISKSTFY [TIGD7_3eA] | 0.95 | 0.02 |
| DLSAVTLSREDQAMAEQLAENYHNTW | 0.02 | 0.02 |
| LNAVNYISTVLADWLDNVFFLQLQQA | 0.02 | 0.03 |
| PPDAHVLGKADEAAGQDFSLDLRSTG [CIITA] | 0.01 | 0.01 |

| Binder | SPOT signal as a fraction of Bim BH3's signal on the same receptor and array [1] | SPOT signal as a fraction of Bim BH3's signal on the same receptor and array [2] |
| --- | --- | --- |
| LNAVNYISTVDADWADNVFFLQLQQA | 0.02 | 0.03 |
| RHFVIRRGQVLREIAEEYGGVMVSFP [HDLBP] | 0.05 | 0.04 |
| IGFFIAFGIAMGKMGDQAKLMVDFFN [SLC1A2] | 0.02 | 0.02 |
| SHALICISHWILGILDRHLNNFMVAM [PRKDC] | 0.03 | 0.02 |
| ISDVQVFGYSLRFNADLLRSAVQQVN [DBC1] | 0.02 | 0.02 |
| HPRKESQVRQDAWVGDGVWVSIRLDS [SPAG9] | 0.02 | 0.02 |
| SRQPRDFGDSDARGGKGFLRGVVGGV [VPS13C] | 0.48 | 0.17 |
| LGLGELAGLTVANEADSLTYDIANNK [STRN] | 0.02 | 0.01 |
| AFTEREASEIMKSILEAIQYLHSINI [MAPKAPK2] | 0.02 | 0.01 |
| DEHISYVATKDCHLGDQLEGVNTPRQ [EXOC5] | 0.02 | 0.01 |
| GKPETCTGQDLADLGDRLRDWFQLLH | 0.02 | 0.01 |
| RGAMLSLATGLAHSGSDLSLLVPEIE [FAM115A] | 0.09 | 0.06 |
| VDFYQPTCIVDQCGADSLGCDRLGCF [HDAC3] | 0.01 | 0.01 |
| QLSKPGAALYLQSILEGFKEAVQYVL [SOS1] | 0.03 | 0.03 |
| SVRYYPSGDADASGSDDATCRLYDLR [GNB5] | 0.01 | 0.01 |
| HPRRESQVRQLAWIGDGVWVSIRLDS | 0.03 | 0.02 |
| HPRRESQVRQLAWILDGVWVSIRLDS | 0.03 | 0.03 |
| CILNSFYGYVDRKGARWYSMEMAGIV | 0.09 | 0.1 |
| VILADPDGHEDCFVGDEAFRELSKMD [GLOD4] | 0.01 | 0.01 |
| RVSWNITGTVLASSGDDGCVRLWKAN [SEH1L] | 0.3 | 0.08 |
